Results taken from a protein production outcome set (Wang et al. 2014).

assay: label from the status in PepcDB records

Row | Sequence | protein production
1 | MRVARLFRFPVKGFPAEEIPEADVRTGRGIRGDRVAAFTNGSLDIPDDSWHRYSAFTVLKNDTDLQKWQVELDLAEAADSSQPAVADPSATVTLTSPQNETTTFRTDDRDTRATSADFLSARIPPQGDFPRALSVADQGMFDSQAAGVSIINPATVAAISQTADGQAALAPGETELDPLRFRGNVLVDGLAPFEEFALIGKIVRLGGVRLAITQAIERCPATTVNPTTTAVDVNVPRVLASACGHLHCGVYGRILESGLVSTGDEIEIEGDAPRELVKTARTPRFMTVLGSQQICNDIVEVSLRDDQGWIREFDEPGTNLRVHLDLGEPFWRTYTITDVSDDIVSIAVRTQGKGSRAVAELAAGQSVLASGPHGTMTANRVFGGTTALVTAGIGITPSLGLMRGAELSGTEKIKLFHVDRDHRTACLWDRLQKRAHSRQIPVETHHRDTASQGRPGHADLVDWLAGCDNVMVCGPADFTRAVLDASAEAGVPAVHQEIFASPNTGMSEAIAQCSPAEVTLENSGTSFLWEPQQGTLLEALEARGLRADNSCRGGSCGTCAVSLAAGSVIYPVEPAARIAADEVLVCSAVPSGPISLGILEHHHHHH | failed
2 | MRVDIVPVGDVPAHVKRQASSSLRSVYDCEVVVASEQDVPTAAYDEARSQYRAAEFIDTATRATSGDKTIAITPHDLFYRRRNYVFGLAYLDGRGCVVSTYRLQTSSDGGFSNRSSSDVFDDRVRKEVVHELGHTLGLEHCDNNRCAMNFSPTVREVDRKEENLCGSCQRTVFLEHHHHHH | not failed
3 | MRVEDVMVTDVDTIDITASLEDVLRNYVENAKGSSVVVKEGVRVGIVTTWDVLEAIAEGDDLAEVKVWEVMERDLVTISPRATIKEAAEKMVKNVVWRLLVEEDDEIIGVISATDILRAKMAKRY | not failed
4 | MRVEVFPVEGLPLIKEGDDLAELISSRVRFEDGDVLVVCSTVISKAEGRIRRLEEFNPSERAKEIAARIGKPAEFVQAVLEESEEVLLDFPFLLVKAKFGNVCVNAGIDASNVEEGSLLLPPLDPDGSAEKLRRRILELTGKRVGVIITDTNGRCFRRGVVGFAIGISGVKAMKDWIGRKDLYGRELEVTVECVADEIAAFANLLMGEGGDGIPAVVVRGLNVAGEGSMEEIYRSEEEDVIRRCLKRCL | not failed
5 | MRVFPVTLGPLQENAYLVETGEGPVLIDPGDEPEKLLALFQTTGLIPLAILLTHAHFDHVGAVAPLVEALDLPVYLHPLDLPLYEGADLAARAWGLAIPKPPLPVRPLEEGMRLFGFQVLHLPGHSPGHVAFYDPEGAQVFSGDLLFRGSVGRYDLPGADPKALFASLKRLLSLPPETRVHPGHGPGTTLGLEARTNPFLTGLEWEA | not failed
6 | MRVFVTGASGWIGSAVVPELIRAGHQVVGLARSDASAEALTAAGAGVVRGTLDDLDVLRRAAADSDGVVHLAFKHDIAFSGDFKGAGEADRRAVEVIGEALAGSDRPFTIASGTPAIPGHVATEHDGHDADRAAAARGDAQHIRAVTAELTVSLSARGVRSSVVRLAPTNHGEGDNGFVPALIGIARGKGVSGYIGDGTNRWSAAHRLDSARLFRLALEKAPAGSTLHAVAEEGLPVRDLAEVVGRQLGLPVVSVPAAEAEAHFGWLAGPLAANRAASSVLTRELLGWEPVQPGLVEDLEQGHYFK | failed
7 | MRVLVTGGAGFIGSHIVEDLLARGLEVAVLDNLATGKRENVPKGVPFFRVDLRDKEGVERAFREFRPTHVSHQAAQASVKVSVEDPVLDFEVNLLGGLNLLEACRQYGVEKLVFASTGGAIYGEVPEGERAEETWPPRPKSPYAASKAAFEHYLSVYGQSYGLKWVSLRYGNVYGPRQDPHGEAGVVAIFAERVLKGLPVTLYARKTPGDEGCVRDYVYVGDVAEAHALALFSLEGIYNVGTGEGHTTREVLMAVAEAAGKAPEVQPAPPRPGDLERSVLSPLKLMAHGWRPKVGFQEGIRLTVDHFRGAV | not failed
8 | MRVVALVPGGIGDQILFFPTLDDLKRYYPNAQLDVVVEPRSKAAYRVSKSVNDILTFDYKDRNSLADWGNLVGTIRDREYDVVITVGQSWLVGLFLWLTGIPTRIGYQGKGRSFLTKTVPFKPSQYAAAVYHDLLAPIGITTPTPELAVNVPKPDIDWANSEQKRLGVNETGYVLIYGGSSWVSQPQALETIYPAENWQEIIQDFRQKQPDLPVVVIQGPDDEQFVRSLRDYSLDIKVTSPDNVGKLTAMIAGANLMLTTDSAPLHLSVAVQTYTIALFGSTDPVKLLPNSDKLLGIKSSTGRVADILPKAVLEKVWGGLEHHHHHH | not failed
9 | MRWGSWLALAGLNAFLSIASGAFAAHALSALGDAHGVGLMEKSARYQMYGAFALVVCAWLAERGVGGRLVAVAGWLHLAGVVLFCGALSAIALLGWPAGPVAPLGGSAMLLGWGVLAWIGLRARRGA | failed
10 | MRWLLLLLLLAACRAQGLPEPYATLERGGKEALRQVALEAQGYAGLLAGWLLVGEEDLPLAERAEYAWRYALFLEEVRAFEPGWEAEAAWRVAAPLLEAAEDARAFSAWARLLPEEEAVQALLRLGQGERLWEALFRGRAYEPLLKALPEGERPDLRAQALYRLGRYEEALPHYRAWAEADPRGYLGLGYALWRLGRREEALQAFARYDHPESRLAQGRLLEGMGRVEEALARYLASTPEGLWRATALLERLGRKEEALGVYLRLAQGESPYADDAALRAYLLAGELGNGEARQEAYARLEGGLGLLVGKRPSPPPQALEAPPAPLTPLVEALVRAGKAAWARGEVRYALWRRPKDWPALVPLLYRLGAYREGIRAAWPTALAYPRAYREWVEGYAGKEGLDPDLLFALLHVESRFDPKAVSPTGALGLAQFLRSTWADVARMLGEPPADPFDPESAIRYAARYLRWLMERCAAFSGVERLACAVTAYNGGIGYTLRGIAREGGLYAFLRFQERDEPREYLAKVLSAYAAYKAIP | failed
11 | MRWRADFLSAWAEALLRKAGADEPSAKAVAWALVEADLRGVGSHGLLRLPVYVRRLEAGLVNPSPTLPLEERGPVALLDGEHGFGPRVALKAVEAAQSLARRHGLGAVGVRRSTHFGMAGLYAEKLAREGFVAWVTTNAEPDVVPFGGREKALGTNPLAFAAPAPQGILVADLATSESAMGKVFLAREKGERIPPSWGVDREGSPTDDPHRVYALRPLGGPKGYALALLVEVLSGVLTGAGVAHGIGRMYDEWDRPQDVGHFLLALDPGRFVGKEAFLERMGALWQALKATPPAPGHEEVFLPGELEARRRERALAEGMALPERVVAELKALGERYGVPWRDDA | not failed
12 | MRYAAVLVEVGGTHRCLPLDSDGDLNIVASFDRRGKHIYTGNAKGKILVLDAETFEVVASFRIIVGTSSATAVKSIEFARRGDAFLINTSDRVIRVYDSKEIIILGKDGEPEPIQKLQDLVNKTTWKKCCFSGDGEYICAGSARQHALYIWEKSIGNLVKILHGTKGELHKQKRIRSFLERLAKDVPRIKNHLTLPNRFLFSSYRYYIRTI | failed
13 | MRYADRVAGISWETIEEVRRRLKERPALHFIAGEFVPSESGETFPSLDPATNEVLGVAARGGEREVDRAAKAAHEAFQRWSRTKAKERKRYLLRIAELIEKHADELAVMECLDAGQVLRIVRAQVARAAENFAFYAEYAEHAMEDRTFPVDRDWLYYTVRVPAGPVGIITPWNAPLMLSTWRIAPALAFGNTVVLKPAEWSPFTATKLAEILKEADLPPGVFNLVQGFGEEAGAALVAHPLVPLLTLTGETETGKIVMRNAADHLKRLSPELGGKSPALVFADADLERALDAVVFQIFSFNGERCTASSRLLVEEKIFEDFVGKVVERARAIRVGHPLDPETEVGPLIHPEHLQRVLGYVEAGKREGARLLVGGERAKTSFRGEDLSRGNYLLPTVFVGENHMKIAQEEIFGPVLVAIPFKDEEEALRKANDTKYGLAAYVFTRDLERAHRLALELEAGMVYLNSHNVRHLPTPFGGVKGSGDRREGGTYALDFYTDLKTIALPLRPPHVPKFGK | not failed
14 | MRYFSTDSPEVKTIVAQDSRLFQFIEIAGEVQLPTKPNPFQSLVSSIVEQQLSIKAASAIYGRVEQLVGGALEKPEQLYRVSDEALRQAGVSKRKIEYIRHVCEHVESGRLDFTELEGAEATTVIEKLTAIKGIGQWTAEMFMMFSLGRLDVLSVGDVGLQRGAKWLYGNGEGDGKKLLIYHGKAWAPYETVACLYLWKAAGTFAEEYRSLEELLHHGNQC | not failed
15 | MRYGFMKVAAAVPFVKVADCEYNIERIDRMVHEADAKGVEIMTFPELSITGYSCGDLFFQPFLQERANEALCRLVEQTANTTVMVIVGMPLRVEEKLFNSAVVFQQGKILGAIPKTYLPNYREFQEARWFSPAHTLQYSTISIGQHSVPIGRNLIFKCGTVGVGIEICEDMWTPFTPGTRLCLYGAEVIFNLSSSNENAGKHSYLRSLISGLSSQGICAYVYASSGYGESSTDIVFTGKAFIAEAGEIVEEMERFRYEERMIISDIDVSRIQTERLINSSFKAAVTFHTHDEKFNQLPFKLRSRQESLPMTRRVDRNPFMPEDKDRKERSREMINIQVCGLMQRLLHMGAEHAVIGISGGLDSALALIVCAQAFDRLDLPRKNIIAVTMPGFGTSDRTYRNAFALMEAIGVTIKEIDIKEACLRHFEAIGHNPEVQDTTFENTQARERTQILMNLANIYNAPVIGTGDLSELALGWVTYNGDHMSMYAVNAGIAKTTVQILVDHIAHSGWLDEAASAVLLDIVRTPISPELKPVGQDGNISQKTEDLVGPYELHDFFIYHFLHNEYKPSKIYYLAGVAFKGIYTKAEIKKWMMVFFRRFFAQQYKRNCMPDGPKVSCISLSPRGAWRMASDASSALWLDEIAKFETDLEHHHHHH | failed
16 | MRYHGGLLLGAFDDDGKIIGMSFGYPGFRNGKLYLYSHMAGVVENKKYSNVGYSLKMKQRDLAASMGYDLIAWTFDPFNPLNAYFNISKLGAITRTYIKNFYGVMNDGINRGMRTDRVVAEWWI | failed
17 | MRYIKFFKELNNKNVNLVGGKNASIGEMFQELVPIGIKVPDGFAITSEAYWYLLEQGGAKQKIIELLENVDATEIDVLKIRSKQIRELIFGTPFPSDLRDEIFQAYEILSQQYHMKEADVAVRSSATAEDLPDASFAGQQDTYLNIKGKTELIHYIKSCLASLFTDRAISYRASRGFDHLKVALSVGVQKMVRADKGSAGVMFSIDTETGFKDAVFITSAWGLGENVVGGTINPDEFYVFKPTLEQNKRPIIKRQLGNKTQKMVYAPRGSEHPTRNIKTTKKEWQSFSLSDEDVLILAKYAIEIEKHYSKEAKQYRPMDIEWAKDGESGEIFIVQARPETVQSQKSKEESQVFEKFKFKNPNEKKEIILQGRAIGSKIGSGKVRIINDLEHMNSFKEGEILVTDNTDPDWEPCMKKASAVITNRGGRTCHAAIVAREIGVPAIVGVSGATDSLYTGMEITVSCAEGEEGYVYAGIYEHEIERVELSNMQETQTKIYINIGNPEKAFGFSQLPNHGVGLARMEMIILNQIKAHPLALVDLHHKKSVKEKNEIENLMAGYANPKDFFVKKIAEGIGMISAAFYPKPVIVRTSDFKSNEYMRMLGGSSYEPNEENPMLGYRGASRYYSESYNEAFSWECEALALVREEMGLTNMKVMIPFLRTIEEGKKVLEILRKNNLESGKNGLEIYIMCELPVNVILADDFLSLFDGFSIGSNDLTQLTLGVDRDSELVSHVFDERNEAMLKMFKKAIEACKRHNKYCGICGQAPSDYPEVTEFLVKEGITSISLNPDSVIPTWNAVAKLEKELKEHGLTEH | failed
18 | MRYLADHDDLTGLHNRRALLQHLDQRLAPGQPGPVAALFLDLDRLKAINDYLGHAAGDQFIHVFAQRIGDALVGESLIARLGGDEFVLIPASPMSADAAQPLAERLRDQLKDHVAIGGEVLTRTVSIGVASGTPGQHTPSDLLRRADQAALAAKHAGGDSVAIFTLEHHHHHH | failed
19 | MRYLSKDILEEVITQRPSDSYKSNFGRVVLIGGNRQYGGAIIMSTEACINSGAGLTTVITDVKNHGPLHARCPEAMVVGFEETVLLTNVVEQADVILIGPGLGLDATAQQILKMVLAQHQKQQWLIIDGSAITLFSQGNFSLTYPEKVVFTPHQMEWQRLSHLPIEQQTLANNQRQQAKLGSTIVLKSHRTTIFHAGEPFQNTGGNPGMATGGTGDTLAGIIAGFLAQFKPTIETIAGAVYLHSLIGDDLAKTDYVVLPTKISQALPTYMKKYAQPHTAPDSELLEQKRSR | not failed
